Reference: the supplement of paper PMC10567573

B1: WEE1 (parent)
chain: FISRTSIPNAASEEGDEDDWASNK

Variants of: B1
Test: protein stability index of a GFP-peptide fusion (GPS, HEK-293T) (PSI 1-6); higher = more stable
Conditions: c terminus: a fixed tail appended
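Note: lentivirally expressed fusions sorted by FACS into six bins by GFP to DsRed ratio, PSI derived from sequencing read proportions per bin multiplied by bin number.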

Protein stability index, by site and new letter:
A11: R 3.78 | E 4.37 | S 4.23 | W 2.45 | N 3.79 | T 4.19 | I 3.48 | K 3.69 | D 4.12 | H 4.4 | V 3.92 | Y 3.63 | Q 4.21 | C 3.47 | F 3.47
S6: G 3.58 | P 3.79 | Y 1.98 | Q 3.89 | F 1.83 | C 3.95 | M 3.15 | T 3.73 | A 3.98 | D 4.39 | K 4.27 | R 3.22 | H 3.48 | V 3.69 | L 2.66 | N 4.53 | I 3.61 | E 4.86 | W 3.48
I7: H 3.79 | N 4.35 | W 2.82 | M 4.41 | Q 4.37 | V 3.78 | A 4.21 | G 4.84 | T 4.53 | F 2.79 | P 4.79 | R 3.58 | K 4.28 | E 4.54 | D 4.84 | S 4.36 | L 4.11 | Y 2.72 | C 3.83
T5: K 4.01 | A 4.19 | R 3.77 | M 3.3 | L 3.6 | D 4.2 | N 4.28 | I 3.5 | S 4.01 | P 4 | F 2.35 | E 4.85 | Q 3.74 | C 3.58 | W 2.71 | Y 2.19 | H 3.21 | G 3.53 | V 3.86
E14: D 3.88 | Y 4.02 | P 3.98 | G 3.33 | M 3.79 | I 3.64 | W 3.02 | Q 3.91 | F 3.53 | K 4.03 | L 3.56 | H 3.75 | S 3.66 | V 3.35 | N 3.78 | C 4.11 | A 4.43 | R 3.39 | T 3.99
D16: T 3.49 | N 3.8 | F 3.63 | A 3.72 | I 4 | E 3.94 | P 3.55 | C 3.74 | K 3.81 | Q 4.02 | L 3.83 | V 3.86 | H 3.23 | R 4.17 | G 3.76 | M 3.61 | W 3.23 | S 3.65 | Y 3.46
S12: W 3.47 | T 3.56 | F 3.68 | E 4.34 | G 4.13 | L 4.03 | C 3.97 | Y 3.76 | P 4.18 | H 3.93 | A 3.64 | N 4.07 | Q 4.3 | D 4.26 | I 3.85 | M 3.68 | V 3.91 | R 4.37 | K 3.75
D19: Q 3.87 | Y 3.27 | T 3.58 | C 3.34 | E 3.96 | G 3.82 | R 3.5 | K 3.77 | F 2.31 | L 2.48 | W 2.37 | V 3.02 | H 3.61 | S 3.78 | N 3.72 | M 3.06 | I 2.67 | P 3.37 | A 3.77
E17: R 3.67 | Y 3.59 | F 3.01 | S 3.72 | Q 3.79 | A 3.73 | P 3.37 | L 3.11 | W 3.04 | H 4.05 | D 4.06 | C 3.43 | M 3.67 | V 3.35 | K 3.73 | G 3.75 | N 2.13 | T 3.64 | I 3.8
